Target: TFAP2 (AP-2) (UniProt P05549)
Test: DNA pull-down, SILAC MS and immunoblot
Settings: PBB: 150 mM NaCl, 50 mM Tris/HCl pH 8.0, 10 mM MgCl2, 0.5% NP-40, protease inhibitor; 200 ug SILAC nuclear extract, 2 h at 4 C (automated: 8 C); elution 16 mM …

TFAP2 (AP-2), sequence (P05549 whole entry): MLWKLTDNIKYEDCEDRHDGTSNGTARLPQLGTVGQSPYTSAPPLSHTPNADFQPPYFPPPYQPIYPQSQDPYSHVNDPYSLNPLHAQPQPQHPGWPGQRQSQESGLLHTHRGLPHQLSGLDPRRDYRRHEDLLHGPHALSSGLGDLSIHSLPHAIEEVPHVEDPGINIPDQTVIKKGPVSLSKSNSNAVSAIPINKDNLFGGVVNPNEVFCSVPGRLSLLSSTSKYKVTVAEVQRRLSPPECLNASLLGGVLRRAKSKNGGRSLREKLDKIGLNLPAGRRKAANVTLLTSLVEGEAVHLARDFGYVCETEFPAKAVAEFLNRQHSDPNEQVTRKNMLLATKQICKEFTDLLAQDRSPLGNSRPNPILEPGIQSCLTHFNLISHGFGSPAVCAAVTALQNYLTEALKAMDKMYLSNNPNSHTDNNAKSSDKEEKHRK

With “AACAAAACTGCAGGATCGAACTGACCGCCCGGGGCACGTGTC / TTGACACGTGCCCCGGGCGGTCAGTTCGATCCTGCAGTTTTG [AP2_C]” the binding signal (SILAC ratio C/A) was 10.
